Entries after “also recorded” stand apart in the source; their conditions may differ. One block for each compound: values may come before it. Ends that are not written are not given here.
Experiments:
HER2-mediated signaling = assay: Effect of HER2 peptide on cell signaling (western blot); assay type: cell-based, human; conditions: 48 hours
Procedure: SKBR3 cells are commonly used to evaluate HER2 signaling, and were grown in 6 well plates to ˜60% confluence. Unlabeled KSP* peptide was added to separate wells at concentrations of 5 and 100 μM. Lapatinib, a tyrosine kinase inhibitor, was used as a positive control and was added in concentrations of 1, 25, 100 and 1000 nM. Lapatinib stock solution starting at 1 mg/mL was diluted in DMSO and PBS. 1% DMSO treated cells and untreated cells were used as control. After 48 hours following treatment, the cells were harvested for western blot analysis. Anti-HER2 antibody (Cell Signaling, #2165), phospho-HER2/ErbB2 (Tyr1248) antibody (Cell Signaling, #2247), anti-AKT (Cell Signaling, #4691P), anti-ERK1/2 (Cell Signaling, #4695P), anti-phospho-AKT (pS473), (Cell Signaling, #4060P), anti-phospho-ERK1/2 (Cell Signaling, #4370P) and anti-tubulin (Invitrogen, #32-2600) were used per manufacturer's instructions.

HER2 [1] = target: T1, HER2 (Homo sapiens, UniProt P04626); assay: Competition for peptide reagent binding with unlabeled KSP* on HT29 cells; design: host or cells: HT29; conditions: unlabeled KSP* 0, 10, 25, 50, 100 μM, then 2 μM KSP*-Cy5.5
Procedure: Specific binding of KSP*-Cy5.5 to HT29 cells was validated on competitive inhibition with unlabeled KSP* peptide reagent. ˜7500 HT29 cells were grown to ˜70% confluence on cover slips in triplicate. Unlabeled KSP* peptide at 0, 10, 25, 50, and 100 μM were added and incubated with the cells for 30 min at 4° C. The cells were washed 3× with PBS, and further incubated with 2 μM of KSP*-Cy5.5 for another 30 min at 4° C. The cells were washed 3× with PBS and fixed with 4% PFA for 10 min. The cells were washed with PBS and mounted with ProLong Gold reagent containing DAPI (Invitrogen). Confocal fluorescence images were collected at each concentration, and intensities from 3 independent images were quantified using custom Matlab (Mathworks) software.

HER2 [2] = target: T1, HER2; assay: Confocal microscopy of FITC-labeled candidate peptides binding to Flo1-HER2 and Q-hTERT (control) cells; assay type: cell-based; conditions: FITC-labeled peptide 10 μM, Flo1-HER2 relative to Q-hTERT cells
Procedure: Flo-1-Her2 and Q-hTERT cells were seeded with ˜7,500 cells in 12-well plates with 1.5 mm thick glass cover slides, and grown to ˜70% confluence. The cells were gently washed with cold PBS before adding the peptide. 10 μM of FITC-labeled peptide was added to each well and incubated at 4° C. for 1 hour. After incubation, the cells were washed 3× with PBS, fixed in ice-cold 4% PFA for 10 min, and washed 1× with PBS. Subsequently, the cells were embedded on microscope slides with ProLong Gold reagent containing DAPI (Invitrogen), and the slides where analyzed with a Leica TCS SP5 confocal microscope using 63× oil immersion objective (Leica Microsystems, Leider Lane IL). The FITC-labeled peptides and anti-HER2 antibody were tested in quadruplicate.

[3] = target: T2, colonic adenomas that over express HER2 (Mus musculus, UniProt P70424); assay: In vivo endoscopic NIR imaging of mouse colonic adenomas, topical peptide reagent; conditions: CPC;Apc mice
T2 construct: validate over expression of HER2 in mouse colonic dysplasia; from tissue; host or cells: colonic adenomas / colon of CPC;Apc mice (in vivo, excised colon, fixed sections)
T2 sequence (P70424 23-1256): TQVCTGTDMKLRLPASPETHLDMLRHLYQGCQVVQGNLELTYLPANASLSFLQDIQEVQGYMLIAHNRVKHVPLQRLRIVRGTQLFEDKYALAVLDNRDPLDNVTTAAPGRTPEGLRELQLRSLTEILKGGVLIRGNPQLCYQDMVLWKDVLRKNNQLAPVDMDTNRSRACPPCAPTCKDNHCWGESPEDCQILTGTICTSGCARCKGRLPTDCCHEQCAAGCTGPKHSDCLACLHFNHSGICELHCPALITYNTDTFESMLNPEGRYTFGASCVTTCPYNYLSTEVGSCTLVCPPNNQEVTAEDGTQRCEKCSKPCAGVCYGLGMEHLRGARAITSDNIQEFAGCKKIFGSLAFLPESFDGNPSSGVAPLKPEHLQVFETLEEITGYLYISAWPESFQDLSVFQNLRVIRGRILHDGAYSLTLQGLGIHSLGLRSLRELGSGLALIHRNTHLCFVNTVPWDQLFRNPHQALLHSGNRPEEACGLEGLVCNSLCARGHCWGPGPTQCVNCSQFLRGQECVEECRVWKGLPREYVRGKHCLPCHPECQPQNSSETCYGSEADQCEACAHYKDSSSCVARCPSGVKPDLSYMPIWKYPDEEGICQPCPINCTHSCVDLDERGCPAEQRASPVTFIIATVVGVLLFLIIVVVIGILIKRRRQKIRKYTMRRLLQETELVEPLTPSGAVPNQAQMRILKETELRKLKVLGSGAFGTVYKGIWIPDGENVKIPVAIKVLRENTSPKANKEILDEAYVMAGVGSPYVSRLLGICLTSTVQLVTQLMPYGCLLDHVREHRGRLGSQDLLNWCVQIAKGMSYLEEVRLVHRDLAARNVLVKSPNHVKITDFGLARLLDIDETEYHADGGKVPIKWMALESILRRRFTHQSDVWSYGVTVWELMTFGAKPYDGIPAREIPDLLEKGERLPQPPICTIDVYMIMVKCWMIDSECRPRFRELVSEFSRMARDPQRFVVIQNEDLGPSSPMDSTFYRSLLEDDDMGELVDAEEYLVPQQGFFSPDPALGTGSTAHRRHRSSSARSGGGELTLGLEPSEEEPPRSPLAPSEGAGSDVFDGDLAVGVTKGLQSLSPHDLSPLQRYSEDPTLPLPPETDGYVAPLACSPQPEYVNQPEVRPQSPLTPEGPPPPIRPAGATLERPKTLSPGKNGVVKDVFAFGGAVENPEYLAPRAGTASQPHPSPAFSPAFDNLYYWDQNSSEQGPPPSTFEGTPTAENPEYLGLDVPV
Procedure: Mouse imaging studies were performed with approval of the University of Michigan Committee on the Use and Care of Animals (UCUCA). The mice were housed in pathogen-free conditions and supplied water ad libitum under controlled conditions of humidity (50±10%), light (12/12 hour light/dark cycle) and temperature (25° C.). Anesthesia was induced and maintained via a nose cone with inhaled isoflurane mixed with oxygen at a concentration of 2-4% at a flow rate of ˜0.5 L/min. The colon was first rinsed with tap water to remove mucous and debris. White light illumination was used first to identify anatomic landmarks, including polyps, mucosal folds, colonic segment, and distance of endoscope tip from anus, to register the in vivo images with histology. […] During imaging, we recorded the 1) distance between the endoscope tip and the anus and 2) clockwise location of each region of high intensity. […]
White light and fluorescence videos were exported in avi format with 24 (RGB) and 8 (grayscale) bit digital resolution for the color and fluorescence images, respectively. […] On the fluorescence images, 3 regions of interest (ROI) with dimensions of 25×25 pixels were picked to represent a range of staining for normal and diseased tissues and averaged. The mean intensities within these ROI were determined to calculate the target to-background (T/B) ratio.

[4] = target: T3, HER2 over expressed by mouse colonic dysplasia (Mus musculus, UniProt P70424); assay: Peptide reagent immunofluorescence on mouse colonic adenoma sections; conditions: 2 μM, 10 min at RT, confocal microscopy
T3 construct: validate over expression of HER2 in mouse colonic dysplasia; from tissue; host or cells: colonic adenomas / colon of CPC;Apc mice (in vivo, excised colon, fixed sections)
T3 sequence (P70424 23-1256): as above
Procedure: Specimens of mouse colonic adenoma were formalin fixed and processed, as described previously. Serial 5 μm sections were incubated with 2 μM of each peptide for 10 min at RT. The sections were washed 3× with PBS, and mounted with Prolong Gold reagent containing DAPI (Invitrogen). Adjacent sections were processed for histology (H&E).

ErbB2 (HER2) = target: T4, ErbB2 (HER2) (Homo sapiens, UniProt P04626); assay: Staining of FFPE human Barrett's esophagus specimens with peptide reagents; conditions: excised human specimens, 5 μM, 10 min
T4 construct: specimens of human esophagus were obtained from an archived tissue bank; from tissue; host or cells: FFPE human esophagus (SQ, BE, LGD, HGD, EAC)
Procedure: Formalin-fixed, paraffin-embedded (FFPE) specimens of human esophagus were obtained from an archived tissue bank. 5 μm thick sections were cut, and mounted onto glass slides (Superfrost Plus, Fischer Scientific). The tissues were deparaffinized, and antigen retrieval was performed. The sections were blocked with protein serum for 15 min at room temperature followed by rinsing with PBS. The sections were then stained with either KSP*-Cy5.5 or RHP*-Cy5.5 at 5 μM concentration for 10 min at room temperature. The sections were then washed 3× for 3 min with PBS and further incubated with anti-HER2 antibody overnight at 4° C. Sections were washed 3× with PBST and mounted with Prolong Gold reagent containing DAPI (Invitrogen) using #1 cover glass ([…]).

HER2 [5] = target: T1, HER2; assay: Confocal fluorescence microscopy of peptide reagent binding to HT29 and SW480 cells; assay type: cell-based; design: host or cells: HT29, SW480; conditions: 5 μM, 30 min at 4° C.
Procedure: Cells were washed with PBS and incubated with 5 μM of KSP*-Cy5.5 and PPS*-Cy5.5 for 30 min at 4° C. The cells were then washed 3× in PBS, fixed with ice cold 4% paraformaldehyde (PFA) for 10 min, washed 1× with PBS, and then mounted on glass slides with ProLong Gold reagent containing DAPI (Invitrogen). Confocal fluorescence images were collected with Cy5.5, and DAPI filters (Leica Inverted SPSX Confocal Microscope System). For antibody staining, the cells were pre-fixed with cold methanol for 10 min at −20° C. and blocked with 2% BSA for 30 min at RT. Cells were incubated with 1:450 dilution of anti HER2 antibody overnight at 4° C. The cells were washed 3× with PBS and processed for secondary staining. Goat-anti rabbit Alexa-Fluor 488 (AF488) was added to the cells and incubated for 1 hour at RT. Cells were further washed 3× with PBS and mounted onto glass cover slips. Fluorescence intensities from 3 independent images were quantified using custom Matlab (Mathworks) software.

Compound: CS(=O)(=O)CCNCc1ccc(-c2ccc3ncnc(Nc4ccc(OCc5cccc(F)c5)c(Cl)c4)c3c2)o1 [lapatinib]
- phosphorylation of HER2 (p-HER2), AKT (p-AKT) and ERK (p-ERK) (HER2-mediated signaling; 1 to 1000 nM): reduced expression; also recorded: dose dependent reduction

Compound: KSP*: unlabeled KSP* peptide (KSPNPRF without Cy5.5 fluorophore)
- phosphorylation of HER2 (p-HER2), AKT (p-AKT) and ERK (p-ERK) (HER2-mediated signaling; 5 and 100 μM): no change; also recorded: no reduction
- fluorescence intensity of KSP*-Cy5.5 on competition with unlabeled peptide (HER2 [1]): decrease significantly in a concentration dependent manner

- mean fluorescence intensity compared with other peptide candidates (HER2 [2]): highest mean fluorescence intensity
Compound: KSPNPRF (also: FITC label, site not given here) [HER2-specific peptide; FITC-labeled for candidate selection]

- mean (±std) T/B ratio ([3]; topical 100 μM, 5 min incubation, adenomas): 1.46±0.25
- staining of normal mouse colonic mucosa [4]: Minimal staining
- staining with cancer progression in Barrett's esophagus (SQ, BE, LGD, HGD, EAC) (ErbB2 (HER2)): Minimal staining
- binding to cell surface on confocal microscopy (HER2 [5]): minimal binding
Compound: PPS*-Cy5.5: scrambled control peptide PPSNFKR linked to Cy5.5 via GGGSK (PPSNFKRGGGSK-{Cy5.5-NH2}; also: Cy5.5 attached via GGGSK linker, end not given here)
- NIR fluorescence signal from polyp / flat adenoma ([3]; topical administration): Minimal signal; also recorded: significantly reduced signal

— US10858396B2, “HER2 peptide regents and methods” (THE REGENTS OF THE UNIVERSITY OF MICHIGAN, priority 2015, dated 2020)
